This is an account of results in the supplement of paper PMC7877785.

The nature of the data set: self-splicing fitness, log relative to wild type (ln ratio); higher = more splicing; Tetrahymena group I intron in knt gene, E. coli kanamycin selection, DiMSum; sequences stand for … in CUCUCU…GGAGGGAAAAGUUAUCAGGCAUGCACCUGGUAGCUAGUCUUUAAACCAAUAGAUUGCAUCGGUUUAAAAGGCAAGACCGUCAAAUUGCGGGAAAGGGGUCAACAGCCGUUCAGUACCAAGUCUCAGGGGAAACUUUGAGAUGGCCUUGCAAAGGGUAUGGUAAUAAGCUGACGGACAUGGUCCUAACCACGCAGCCAAGUCCUAAGUCAACAGAUCUUCUGUUGAUAUGGAUGCAGUUCACAGACUAAAUGUCGGUCGGGGAAGAUGUAUUCUUCUCAUAAGAUAUAGUCGGACCUCUCCUUAAUGGGAGCUAGCGGAUGAAGUGAUGCAACACUGGAGCCGCUGGGAACUAAUUUGUAUGCGAAAGUAUAUUGAUUAGUUUUGGAGUACUCGUGGUCG
Summed up: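 Library with all eight P1ex-region intron nucleotides randomised, intron inside the knt kanamycin-resistance gene on pET-22b(+), in E. coli BL21(DE3). Cells grew overnight at 37°C or 30°C on LB agar with or without 25 μg/mL kanamycin (plus 100 μg/mL carbenicillin, 50 μM IPTG, 0.2% rhamnose), in six replicate transformations. Pooled colonies were amplicon-sequenced on Illumina HiSeq 2500. DiMSum fitness is the error-weighted combination of wild-type-normalised replicate fold changes, kanamycin versus none.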

± gives the uncertainty stated by the source.

With ACGGAGCAAUAUUACGCCUC, the “self-splicing fitness (ln)” value is, setting by setting: (30 °C) -2.43 ± 0.43; (37 °C) -1.82 ± 0.27.

ACCGAGCAAUAUUACGCGCA: the “self-splicing fitness (ln)” value is -2.06 ± 0.1 (30 °C) and -0.82 ± 0.078 (37 °C).

In the case of AAGGAGCAAUAUUACGGGGG, the “self-splicing fitness (ln)” value is, setting by setting: (30 °C) -2.94 ± 0.19; (37 °C) -0.0467 ± 0.21.

As to AUUCAGCAAUAUUACGACUG, the “self-splicing fitness (ln)” value runs as follows: (30 °C) -1.47 ± 0.13; (37 °C) -0.646 ± 0.15.

In the case of CGCCAGCAAUAUUACGCUAA, the “self-splicing fitness (ln)” value is -2.34 ± 0.15 (30 °C) and -1.29 ± 0.14 (37 °C).

With UUCAAGCAAUAUUACGUGAG, the “self-splicing fitness (ln)” value reads like this: (30 °C) -0.36 ± 0.071; (37 °C) 0.0932 ± 0.088.

Take CGUUAGCAAUAUUACGGUGG: the “self-splicing fitness (ln)” value is, setting by setting: (30 °C) -0.853 ± 0.056; (37 °C) -0.115 ± 0.079.

As to CUCGAGCAAUAUUACGCGUG, the “self-splicing fitness (ln)” value runs as follows: (30 °C) -3.43 ± 0.26; (37 °C) -2.03 ± 0.19.

As for AGGGAGCAAUAUUACGUACA, the “self-splicing fitness (ln)” value runs as follows: (30 °C) -2.14 ± 0.18; (37 °C) -2.46 ± 0.28.

For GAAAAGCAAUAUUACGGCUG, the “self-splicing fitness (ln)” value was -0.13 ± 0.091 (30 °C) and 0.108 ± 0.14 (37 °C).

Regarding GCACAGCAAUAUUACGCGAA, the “self-splicing fitness (ln)” value was -0.472 ± 0.066 (30 °C) and 0.308 ± 0.071 (37 °C).

AGAGAGCAAUAUUACGGGUG: the “self-splicing fitness (ln)” value (30 °C) is -3.31 ± 0.32.

GCUCAGCAAUAUUACGGCAG: the “self-splicing fitness (ln)” value was -2.91 ± 0.22 (30 °C) and -2.82 ± 0.38 (37 °C).

On to GGUGAGCAAUAUUACGAGUC, for which the “self-splicing fitness (ln)” value is, setting by setting: (30 °C) -1.67 ± 0.24; (37 °C) -1.83 ± 0.37.

Turning to AAUCAGCAAUAUUACGUGGA, the “self-splicing fitness (ln)” value is, setting by setting: (30 °C) -0.585 ± 0.072; (37 °C) -0.433 ± 0.076.

In the case of ACACAGCAAUAUUACGGGAU, the “self-splicing fitness (ln)” value runs as follows: (30 °C) -1.91 ± 0.053; (37 °C) -0.774 ± 0.06.

Take UCGUAGCAAUAUUACGUAAC: the “self-splicing fitness (ln)” value (30 °C) is -1.64 ± 0.34.

As for ACCUAGCAAUAUUACGCAGU, the “self-splicing fitness (ln)” value is -2.58 ± 0.17 (30 °C) and -1.53 ± 0.19 (37 °C).

Consider UAUUAGCAAUAUUACGGCUC, for which the “self-splicing fitness (ln)” value (30 °C) is -0.997 ± 0.4 and the “self-splicing fitness (ln)” value (37 °C) turned out to be 0.595 ± 0.44.

Consider AAUCAGCAAUAUUACGUAAC, for which the “self-splicing fitness (ln)” value by setting is: (30 °C) -1.33 ± 0.11; (37 °C) -0.141 ± 0.11.

As for CAACAGCAAUAUUACGUAUU, the “self-splicing fitness (ln)” value reads like this: (30 °C) -3.48 ± 0.17; (37 °C) -1.58 ± 0.11.

With CUUAAGCAAUAUUACGAAGU, the “self-splicing fitness (ln)” value is, setting by setting: (30 °C) -2.9 ± 0.13; (37 °C) -2.19 ± 0.18.

For GUGGAGCAAUAUUACGUAUA, where the note is “30 °C”, the “self-splicing fitness (ln)” value was -2.7 ± 0.2.

Regarding GCGCAGCAAUAUUACGACUC, the “self-splicing fitness (ln)” value is -0.32 ± 0.17 (30 °C) and 0.304 ± 0.15 (37 °C).

On to CAUAAGCAAUAUUACGAAAG, for which the “self-splicing fitness (ln)” value by setting is: (30 °C) -1.13 ± 0.09; (37 °C) -0.268 ± 0.12.

With ACAUAGCAAUAUUACGGAGA, the “self-splicing fitness (ln)” value (30 °C) is -3.28 ± 0.25 and the “self-splicing fitness (ln)” value (37 °C) was -2.47 ± 0.24.

Take CACGAGCAAUAUUACGGCCA: the “self-splicing fitness (ln)” value (37 °C) was -2.79 ± 0.32.

Take UGUUAGCAAUAUUACGGUCA: the “self-splicing fitness (ln)” value is, setting by setting: (30 °C) 0.281 ± 0.096; (37 °C) 0.169 ± 0.11.

As for AAUUAGCAAUAUUACGCUCC, the “self-splicing fitness (ln)” value (30 °C) is -1.09 ± 0.36 and the “self-splicing fitness (ln)” value (37 °C) was -0.0599 ± 0.35.

Take CAUAAGCAAUAUUACGAUCC: the “self-splicing fitness (ln)” value reads like this: (30 °C) -3.25 ± 0.23; (37 °C) -2.71 ± 0.32.

CAUAAGCAAUAUUACGAACC: the “self-splicing fitness (ln)” value (37 °C) is -1.26 ± 0.35.

As to CGCGAGCAAUAUUACGUGAG, the “self-splicing fitness (ln)” value is, setting by setting: (30 °C) -4.51 ± 0.39; (37 °C) -2.54 ± 0.32.

On to AGGCAGCAAUAUUACGUCAU, for which the “self-splicing fitness (ln)” value by setting is: (30 °C) -1.87 ± 0.058; (37 °C) -1.1 ± 0.077.

Consider CACGAGCAAUAUUACGGAUA, for which the “self-splicing fitness (ln)” value is -2.98 ± 0.27 (30 °C) and -2.06 ± 0.24 (37 °C).

In the case of CGUCAGCAAUAUUACGAAAG, the “self-splicing fitness (ln)” value (30 °C) was -0.9 ± 0.073 and the “self-splicing fitness (ln)” value (37 °C) was found to be 0.129 ± 0.096.

As to GGGCAGCAAUAUUACGCCAA, the “self-splicing fitness (ln)” value was -0.582 ± 0.19 (30 °C) and -0.176 ± 0.24 (37 °C).

As for AAUAAGCAAUAUUACGCAUU, the “self-splicing fitness (ln)” value is -2.97 ± 0.21 (30 °C) and -2.56 ± 0.28 (37 °C).

As for UUGAAGCAAUAUUACGAGCU, the “self-splicing fitness (ln)” value is -1.76 ± 0.16 (30 °C) and -1.02 ± 0.19 (37 °C).

As to GUCGAGCAAUAUUACGUAUA, the “self-splicing fitness (ln)” value (30 °C) was -3.54 ± 0.25 and the “self-splicing fitness (ln)” value (37 °C) is -1.63 ± 0.18.
